Reference: patent US6462173B1, “Inhibitors of phosphoserine and phosphothreonine-proline-specific isomerases” (Max-Planck-Gesellschaft zur Forderung der, priority 1997, dated 2002)

B1: Mos: mitotic phosphoprotein, Xenopus Mos clone (protein)
chain: MPSPIPVERFLPRDLSPSIDLRPCSSPLELSHRKLPGGLPACSGRPRLLPPRLAWCSIDWEQVLLLEPLGSGGFGSVYRATYRGETVALKKVKRSTKNSLASRQSFWAELNAARLRHPHVVRVVAASASCPGDPGCPGTIIMEYTGTGTLHQRIYGRSPPLGAEICMRYARHVADGLRFLHRDGVVHLDLKPANVLLAPGDLCKIGDFGCSQRLREGDEAAGGEPCCTQLRHVGGTYTHRAPELLKGEPVTAKADIYSFAITLWQMVSRELPYTGDRQCVLYAVVAYDLRPEMGPLFSHTEEGRAARTIVQSCWAARPQERPNAEQLLERLEQECAMCTGGPPSCSPESNAPPPLGTGL
B2: NIMA: mitotic phosphoprotein, kinase (protein)
chain: MAIALAEADKYEVLEKIGCGSFGIIRKVKRKSDGFILCRKEINYIKMSTKEREQLTAEFNILSSLRHPNIVAYYHREHLKASQDLYLYMEYCGGGDLSMVIKNLKRTNKYAEEDFVWRILSQLVTALYRCHYGTDPAEVGSNLLGPAPKPSGLKGKQAQMTILHRDLKPENIFLGSDNTVKLGDFGLSKLMHSHDFASTYVGTPFYMSPEICAAEKYTLRSDIWAVGCIMYELCQREPPFNARTHIQLVQKIREGKFAPLPDFYSSELKNVIASCLRVNPDHRPDTATLINTPVIRLMRREVELNNLSRAARKREEATMQKAKDVEQAFAKLEKEKQQIRSELENSIRREWEVKARLEIDRQVQNELDKLRKRFECEVQDRVAQEVEKQRRNANYREDASLRSSGHSSQMSSSNSEDSDFPSSTDISQLSLESPTNKAAKLPKKESRTPFTRSKTVVDSPMDIQMAEPSPISIASLSLSPRRTSATYSGKNIFAEGERKRPKFEPTLAYSDDEDDTPELPSPTRPKVKPDPFKAPSRPLLRQNTTALMQKLSTQPPIFPANPSRLPQMSAPDVRESKSRSPHRRLSKIPSSANLAADAGSPTRKNGVKSSPSKMNGGDEMFKAVMQRNMGGRTLVELAQARAGGRPIDEVKRCASDSRSGCSVPMKSADRDPPAVWDPERDEMPSPFLARGRKVIRNLR
B3: E-MAP-115: cytoskeletal/spindle protein, predicted Pin1 substrate (protein, UniProt Q14244 2-749, looked up)
Ensconsin: AELGAGGDGHRGGDGAVRSETAPDSYKVQDKKNASSRPASAISGQNNNHSGNKPDPPPVLRVDDRQRLARERREEREKQLAAREIVWLEREERARQHYEKHLEERKKRLEEQRQKEERRRAAVEEKRRQRLEEDKERHEAVVRRTMERSQKPKQKHNRWSWGGSLHGSPSIHSADPDRRSVSTMNLSKYVDPVISKRLSSSSATLLNSPDRARRLQLSPWESSVVNRLLTPTHSFLARSKSTAALSGEAASCSPIIMPYKAAHSRNSMDRPKLFVTPPEGSSRRRIIHGTASYKKERERENVLFLTSGTRRAVSPSNPKARQPARSRLWLPSKSLPHLPGTPRPTSSLPPGSVKAAPAQVRPPSPGNIRPVKREVKVEPEKKDPEKEPQKVANEPSLKGRAPLVKVEEATVEERTPAEPEVGPAAPAMAPAPASAPAPASAPAPAPVPTPAMVSAPSSTVNASASVKTSAGTTDPEEATRLLAEKRRLAREQREKEERERREQEELERQKREELAQRVAEERTTRREEESRRLEAEQAREKEEQLQRQAEERALREREEAERAQRQKEEEARVREEAERVRQEREKHFQREEQERLERKKRLEEIMKRTRRTEATDKKTSDQRNGDIAKGALTGGTEVSALPCTTNAPGNGKPVGSPHVVTSHQSKVTVESTPDLEKQPNENGVSVQNENFEEIINLPIGSKPSRLDVTNSESPEIPLNPILAFDDEGTLGPLPQVDGVQTQQTAEVI
B4: Splicing factor SC35: nuclear/splicing protein, predicted Pin1 substrate (protein, UniProt Q01130 2-221, looked up)
Serine/arginine-rich splicing …: SYGRPPPDVEGMTSLKVDNLTYRTSPDTLRRVFEKYGRVGDVYIPRDRYTKESRGFAFVRFHDKRDAEDAMDAMDGAVLDGRELRVQMARYGRPPDSHHSRRGPPPRRYGGGGYGRRSRSPRRRRRSRSRSRSRSRSRSRSRYSRSKSRSRTRSRSRSTSKSRSARRSKSKSSSVSRSRSRSRSRSRSRSPPPVSKRESKSRSRSKSPPKSPEEEGAVSS
B5: Cdc25: mitotic phosphoprotein, phosphatase; Xenopus Cdc25 clone translated in vitro (protein)
chain: STELFSSTREEGSSGSGPSFRSNQRKMLNLLLERDTSFTVCPDVPRTPVGKFLGDSANLSILSGGTPKRCLDLSNLSSGEITATQLTTSADLDETGHLDSSGLQEVHLAGMNHDQHLMKCSPAQLLCSTPNGLDRGHRKRDAMCSSSANKENDNGNLVDSEMKYLGSPITTVPKLDKNPNLGEDQAEEISDELMEFSLKDQEAKVSRSGLYRSPSMPENLNRPRLKQVEKFKDNTIPDKVKKKYFSGQGKLRKGLCLKKTVSLCDITITQMLEEDSNQGHLIGDFSKVCALPTVSGKHQDLKYVNPETVAALLSGKFQGLIEKFYVIDCRYPYEYLGGHIQGALNLYSQEELFNFFLKKPIVPLDTQKRIIIVFHCEFSSERGPRMCRCLREEDRSLNQYPALYYPELYILKGGYRDFFPEYMELCEPQSYCPMHHQDHKTELLRCRSQSKVQEGERQLREQIALLVKDMSP
B6: Plx1: mitotic phosphoprotein (protein)
chain: MAQVAGKKLTVAPEAAKPPGIPGSSSAVKEIPEILVDPRTRRRYLRGRFLGKGGFAKCYEITDLESREVFAGKIVPKTMLLKPHQKDKMTMEIAIQRSLDHRHVVGFHGFFEDNDFVYVVLELCRRRSLLELHKRRKAVTEPEARYYLKQTISGCQYLHSNRVIHRDLKLGNLFLNDEMEVKIGDFGLATKVEYDGERKKTLCGTPNYIAPEVLGKKGHSFEVDIWSIGCIMYTLLVGKPPFETSCLKETYMRIKKNEYSIPKHINPVAAALIQKMLRSDPTSRPTIDDLLNDEFFTSGYIPSRLPTTCLTVPPRFSIAPSTIDQSLRKPLTAINKGQDSPLVEKQVAPAKEEEMQQPEFTEPADCYLSEMLQQLTCLNAVKPSERALIRQEEAEDPASIPIFWISKWVDYSDKYGLGYQLCDNSVGVLFNDSTRLIMYNDGDSLQYIERNNTESYLNVRSYPTTLTKKITLLKYFRNYMSEHLLKAGANTTPREGDELARLPFLRTWFRTRSAIILHLSNGTVQINFFQDHTKIILCPLMAAVSYIDEKREFRTYKLSLIQEFGCCKELASRLRYARTMVEKLQSSKSAVAHVKASA

Columns and labels:
Pin1 [1] = target: T1, Pin1 (Homo sapiens, UniProt Q13526); experiment: Pin1 precipitation from interphase and mitotic HeLa extracts probed with antibodies to known mitotic phosphoproteins; format: binding
T1 construct: fusion protein containing full length Pin1 was bacterially expressed, purified; made in house
T1 sequence (Q13526 whole entry, the tested form may be a part): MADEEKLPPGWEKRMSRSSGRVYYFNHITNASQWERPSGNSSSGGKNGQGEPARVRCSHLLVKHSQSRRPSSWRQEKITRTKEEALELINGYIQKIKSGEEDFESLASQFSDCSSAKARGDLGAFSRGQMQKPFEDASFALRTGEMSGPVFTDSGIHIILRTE
Experimental: (§1) To detect Pin1-binding proteins, either HeLa cells were lysed in or Xenopus extracts were diluted in a buffer (buffer A) containing 50 mM Tris-HCl, pH 8.0, 200 mM NaCl, 100 mM NaF, 1 mM sodium orthovanadate, 10% glycerol, 1% Triton X100, 10 μg/ml aprotinin, 50 μg/ml phenylmethylsulfonyl fluoride and 1 mM DTT. The lysates were preclarified with boiled S. aureus bacteria (CalBiochem) and then incubated with 10 μl of agarose beads containing various GST-Pin1 proteins or control GST for 2 h at 4° C. The precipitated proteins were washed 5 times in the same buffer and subjected to immunoblotting analysis. Immunoprecipitation and immunoblotting analysis using MPM-2 antibody (Davis et al. 1983), which was kindly provided by J. Kuang, Pin1 antibodies (Lu et al., 1996, kindly provided by M. White or newly generated), anti-phospho.Tyr antibody (UBI), anti-Cdc25C (Ogg, et al., 1994) (from H. Piwnica-Worms and Santa Cruz Biotechnology), anti-Cdc27, anti-Plk1 (Zymed), anti-Cdc2 (Solomon, M. J., M. Glotzer, T. H. Lee, M. Philippe and M. W. Kirschner. Cell 63:1013-1024 (1991), anti-human Myt1, anti-human cyclin B1 and anti-Xenopus cyclin B were performed, as described previously in Lu and Hunter, 1995; Lu et al., 1996).
Several known mitotic regulators such as cyclin B, Cdc25, Myt1, Plk1 and Cdc27 are phosphorylated at mitosis. To identify at least a few of the many Pin1 binding proteins, Pin1-binding proteins were precipitated from HeLa cells, or Xenopus extracts and probed with antibodies specific for known mitotic phosphoproteins. As shown previously, levels of Plk1 and cyclin B1 increased at mitosis, whereas similar amounts of Cdc25C were present in interphase and mitotic HeLa cells. […] Similarly, only the mitotic, but not the interphase form of Xenopus Cdc27 was precipitated by Pin1.

Pin1 [2] = target: T1, Pin1; experiment: Precipitation with GST-Pin1 beads of synthesized phosphoproteins incubated with interphase and mitotic Xenopus extracts; format: binding; parameters: key: +: a week but above background interaction; ++: readily detectable interaction; +++: strong interaction; conditions: for Interaction with Pin1, Mitotic: mitotic Xenopus extracts
Experimental: The binding between Pin1 and all selected mitotic phosphoproteins was assayed by incubating synthesized proteins with interphase and mitotic Xenopus extracts, followed by precipitation with GST-Pin1beads. The Pin1 interactions with those proteins indicated with * were also confirmed by GST-Pin1 pull-down assay from endogenous interphase and mitotic HeLa cell extracts. +, a week but above background interaction; ++, readily detectable interaction; +++, strong interaction.
The mitotic phosphoproteins were translated in vitro using the TNT coupled transcription/translation kit (Promega) in a total volume of 10 μl in the presence of 8 μCi [^35S]methionine (1000 Ci/mmol) for 2 h at 30° C. They were then incubated in xenopus interphase and mitotic extracts as described (Stukenberg et al., 1997). These incubated clones were precipitated by Pin1 beads as described below. The Xenopus Mos and Weel clones were a kind gift of M. Murakami, G, F. Woude and J. Cooper; the Xenopus Cdc25 clone was a generous gift of W. Dunphy, T3 and T3S2 Cdc25 mutants were kindly provided by J. Maller (Izumi and Maller, 1993).
as §1
To gain a sense of the generality of the interaction between Pin1 and mitotic phosphoproteins and to confirm the Pin1 interaction with target proteins is indeed mediated by phosphorylation, the ability of Pin1 to bind other known mitotic phosphoproteins and a set of mitotic phosphoproteins identified by a systematic phosphoprotein screen (Stukenberg et al., Curr Biol 7:338-348 (1997). Proteins synthesized in vitro were phosphorylated in a cell cycle specific manner by incubating them in either Xenopus interphace or mitotic extracts. These labeled protein were subsequently incubated with GST-Pin1 beads that were extensively washed and the bound proteins analyzed by SDS-PAGE. To validate this method, Cdc25 was first tested. Again, the mitotically phosphorylated form of in vitro translated Cdc25 could be precipitated by GST-Pin1 beads. However, Cdc25 was not recognized by Pin1 if it was incubated in interphase extracts. […] Out of the 13 mitotic phosphoproteins examined, Pin1 bound 10 in a mitosis and phosphorylation-dependent manner (summarized in Table 1), including Weel, MP75 and MP110, MP75 and MP110 are Xenopus proteins related to microtubule-associated protein E-MAP-115 and the fission yeast G2 transcription factor Cdc5, respectively.

Pin1 [3] = target: T1, Pin1; experiment: Confirmation of interaction between Pin1 and predicted Pin1 substrates; conditions: Pin1 binding confirmed in vitro (SC35 inferred from colocalization)
Experimental: On the basis of amino acid preferences deduced in the 6 positions surrounding the pS-P motif for optimal Pin1 binding, a weighted screening of the SWISS-PROT sequence database. Protein sequence database screening was performed with the program INDOVINATOR, using an entropy-based weighing technique to score for relative information content at each amino acid position flanking the pS/pT-P motif with the quantitative peptide library results, which are shown qualitatively in Table 3. […] Many of these proteins are involved in regulation of the cell cycle, cytoskeletal/spindle structure, DNA replication, transcription or RNA processing (Table 4).
Several of these predicted proteins, such as Rab4, Cdc25 and NIMA, undergo mitosis-specific phosphorylation (R. Heald and F. McKeon, Cell 61:579 (1990); E. Bailly, et al., Nature 350:715 (1991); A. Blangy, et al., Cell 83:1159 (1995): J. Kuang, et al., Mol. Biol. Cell 5:135 (1994); X. S. Ye, et al., EMBO J. 14:986 (1995)). Cdc25 and NIMA also binds to Pin1 in a phosphorylation-dependent manner, as described herein. Other proteins identified in this search, however, had not been previously suspected of interacting with Pin1; therefore, a few were further investigated as example cases. […] Thus, Pin1 binds a wide functional range of mitotic phosphoproteins.

Row | Molecule | Interaction with Pin1, Mitotic (Pin1 [2]) | Binding Confirmed (Pin1 [3]) | further results
1 | PTP-1B: protein hyperphosphorylated during mitosis | – | – | precipitation by Pin1 (Pin1 [1]): not precipitated by Pin1 in either interphase or mitotic extracts
2 | B1 | ++ | – | Interaction with Pin1, Interphase (Pin1 [2]; interphase Xenopus extracts): +
3 | B2 | +++ | Yes | –
4 | B3 | – | Yes | –
5 | B4 | – | Yes | –
6 | B5 | +++ | – | –
7 | B6 | +++ | – | –
